Measurements as given in the supplement of paper PMC9233669.
Fewer inactive variants are shown than the library holds.

Key:
biotinyl-Val-oxazolone = assay: self-aminoacylation, catalytic enhancement (BVO) (fold over background); higher = more active; k-Seq, kA / k0A0; sequences stand for … in GGGAAUGGAUCCACAUCUACGAAUUC…UUCACUGCAGACUUGACGAAGCUG
How it was run: (§1)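 Each biotinyl-aminoacyl-oxazolone, at 2–1250 μM, was incubated with mutagenized RNA pools (0.43 μM) carrying a 21-nt variable region. The 50 μL reactions contained HEPES/NaCl/KCl/MgCl2/CaCl2 buffer with 5% acetonitrile at pH 6.9–7.0 and ran for 90 minutes at room temperature. After streptavidin capture, RNA was measured by qPCR in triplicate and by Illumina sequencing, and catalytic enhancement was calculated as median kA over the uncatalyzed rate from a pseudo-first-order fit of per-sequence fraction reacted.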

biotinyl-Met-oxazolone = assay: self-aminoacylation, catalytic enhancement (BMO) (fold over background); higher = more active; k-Seq, kA / k0A0; sequences stand for … in GGGAAUGGAUCCACAUCUACGAAUUC…UUCACUGCAGACUUGACGAAGCUG
How it was run: as §1

biotinyl-Ile-oxazolone = assay: self-aminoacylation, catalytic enhancement (BIO) (fold over background); higher = more active; k-Seq, kA / k0A0; sequences stand for … in GGGAAUGGAUCCACAUCUACGAAUUC…UUCACUGCAGACUUGACGAAGCUG
How it was run: as §1

biotinyl-Phe-oxazolone = assay: self-aminoacylation, catalytic enhancement (BFO) (fold over background); higher = more active; k-Seq, kA / k0A0; sequences stand for … in GGGAAUGGAUCCACAUCUACGAAUUC…UUCACUGCAGACUUGACGAAGCUG
How it was run: as §1

biotinyl-Trp-oxazolone = assay: self-aminoacylation, catalytic enhancement (BWO) (fold over background); higher = more active; k-Seq, kA / k0A0; sequences stand for … in GGGAAUGGAUCCACAUCUACGAAUUC…UUCACUGCAGACUUGACGAAGCUG
How it was run: as §1

biotinyl-Leu-oxazolone = assay: self-aminoacylation, catalytic enhancement (BLO) (fold over background); higher = more active; k-Seq, kA / k0A0; sequences stand for … in GGGAAUGGAUCCACAUCUACGAAUUC…UUCACUGCAGACUUGACGAAGCUG
How it was run: as §1

| Sequence | self-aminoacylation (biotinyl-Val-oxazolone) | self-aminoacylation (biotinyl-Met-oxazolone) | self-aminoacylation (biotinyl-Ile-oxazolone) | self-aminoacylation (biotinyl-Phe-oxazolone) | self-aminoacylation (biotinyl-Trp-oxazolone) | self-aminoacylation (biotinyl-Leu-oxazolone) |
| --- | --- | --- | --- | --- | --- | --- |
| AUUAUCCUGGGCAUCGAGUGA [Fam2.1 aminoacylation ribozyme variant] | 2.94 | 5.87 | 3.07 | 36.3 | 6.86 | 6.24 |
| AUUACCUUGGUCAUCGAGUCA [Fam2.1 aminoacylation ribozyme variant] | 0.81 | 0.691 | 0.854 | 0.473 | 0.599 | 0.786 |
| CUACUUCAAACAAUAGGUCAG [Fam1A.1 aminoacylation ribozyme variant] | 0.812 | 0.602 | 0.688 | 1.19 | 0.568 | 0.577 |
| AAGGUUGGUAAUAGUCGCAAG [Fam3.1 aminoacylation ribozyme variant] | 1.38 | 1.59 | 1.48 | 2.09 | 2.15 | 1.55 |
| CUUCACCUGGGUCAUCGGGUG [Fam2.2 aminoacylation ribozyme variant] | 5 | 4.02 | 2.43 | 25 | 4.89 | 4.82 |
| GAGUUUGCUAAUAGUCGGAAG [Fam3.1 aminoacylation ribozyme variant] | 1.38 | 1.6 | 1.38 | 11.6 | 4.68 | 1.16 |
| AAGUUUGCUAAUAGUGGCGAG [Fam3.1 aminoacylation ribozyme variant] | 0.88 | 0.875 | 0.939 | 1.2 | 0.531 | 1.09 |
| CCACAGAUCAAGCAAUCGGUC [Fam1B.1 aminoacylation ribozyme variant] | 0.824 | 0.576 | 1.01 | 2.39 | 1.61 | 0.81 |
| CUACUUCAAACCAUCGGUCUC [Fam1A.1 aminoacylation ribozyme variant] | 0.72 | 0.555 | 0.708 | 0.936 | 0.731 | 0.496 |
| CUACUUCAAACACUCAGUCUG [Fam1A.1 aminoacylation ribozyme variant] | 0.732 | 0.727 | 0.798 | 1.02 | 0.601 | 0.685 |
| AUUACCCUGCUCAUAGAGUGA [Fam2.1 aminoacylation ribozyme variant] | 4.28 | 9.74 | 3.87 | 57.5 | 10.7 | 8.96 |
| AUACCUCAAACAAUCGGUCUG [Fam1A.1 aminoacylation ribozyme variant] | 0.92 | 0.919 | 0.977 | 4.92 | 1.52 | 0.934 |
| AAUACCCUGGUCAUCCAGUGA [Fam2.1 aminoacylation ribozyme variant] | 2.88 | 5.25 | 3.01 | 10.6 | 5.84 | 4.96 |
| CGACACUACAAGCAAUCGGUC [Fam1B.1 aminoacylation ribozyme variant] | 1 | 0.769 | 0.935 | 0.638 | 0.675 | 0.755 |
| ACGUUUGCUCAUAGUCGCAAG [Fam3.1 aminoacylation ribozyme variant] | 1.91 | 1.88 | 1.89 | 2.58 | 3.57 | 2.49 |
| CCGCACUUCAAGCACUCGGUC [Fam1B.1 aminoacylation ribozyme variant] | 1.79 | 1.44 | 1.38 | 1.93 | 1.55 | 1.64 |
| AAGUUUGCUAAUAGUCCAAAG [Fam3.1 aminoacylation ribozyme variant] | 1.18 | 1.34 | 1.21 | 3.72 | 1.75 | 0.966 |
| CCACACUUCAGGCAAUCGGUU [Fam1B.1 aminoacylation ribozyme variant] | 1.98 | 2.24 | 1.68 | 6.44 | 2.37 | 2.13 |
| AUUCUCCUGGGUCAUCGGGUG [Fam2.2 aminoacylation ribozyme variant] | 7.53 | 9.61 | 6.05 | 73.6 | 9.42 | 10.8 |
| AUUCCCCUAGGUCAUCGGGCG [Fam2.2 aminoacylation ribozyme variant] | 11.3 | 15.7 | 9.9 | 81.8 | 9.17 | 13.5 |
| AUUCAACUUGGUCAUCGGGUG [Fam2.2 aminoacylation ribozyme variant] | 3.29 | 5.25 | 3.85 | 34.1 | 4.45 | 6.72 |
| AAGUUUGAUAAGAGUCGCAAG [Fam3.1 aminoacylation ribozyme variant] | 1.12 | 1.06 | 1.62 | 1.67 | 1.33 | 1.24 |
| CCACCCUUCAAGGAAUCGGUC [Fam1B.1 aminoacylation ribozyme variant] | 1.32 | 1.34 | 1.36 | 3.31 | 4 | 1.27 |
| AAUUUUGCUAAUAGUCGCAAA [Fam3.1 aminoacylation ribozyme variant] | 2.15 | 3.1 | 3 | 2.06 | 2.42 | 2.22 |
| AUUGCCCUAGGUCAUCGGGUG [Fam2.2 aminoacylation ribozyme variant] | 5.7 | 8.34 | 5.44 | 62.7 | 7.92 | 11.8 |
| CCACACUUUAAGCAAUAGGUC [Fam1B.1 aminoacylation ribozyme variant] | 0.683 | 0.592 | 0.619 | 1.07 | 0.444 | 0.578 |

| Sequence | self-aminoacylation (biotinyl-Val-oxazolone) | self-aminoacylation (biotinyl-Met-oxazolone) | self-aminoacylation (biotinyl-Ile-oxazolone) | self-aminoacylation (biotinyl-Phe-oxazolone) | self-aminoacylation (biotinyl-Trp-oxazolone) | self-aminoacylation (biotinyl-Leu-oxazolone) |
| --- | --- | --- | --- | --- | --- | --- |
| UUUCACCUAGGUCAUCGUGUG [Fam2.2 aminoacylation ribozyme variant] | 1.27 | 1.43 | 1.19 | 4.69 | 1.34 | 1.19 |
| AUCCACCUAGGUCAUCGGUUG [Fam2.2 aminoacylation ribozyme variant] | 1.52 | 1.5 | 1.31 | 5.85 | 1.84 | 1.41 |
| CCAAACCUCAAGCAAUCGGUC [Fam1B.1 aminoacylation ribozyme variant] | 1.29 | 1.12 | 1.35 | 1.54 | 1.22 | 1.27 |
| CUCCUUAAAACAAUCGGUCUG [Fam1A.1 aminoacylation ribozyme variant] | 0.862 | 1.12 | 1.06 | 1.05 | 1.32 | 0.899 |
| CCACACUUCCUGCAAUCGGUC [Fam1B.1 aminoacylation ribozyme variant] | 1.19 | 0.859 | 1.04 | 0.777 | 0.961 | 1.11 |
| AUUCCCUUGGUCAUCGAGUGA [Fam2.1 aminoacylation ribozyme variant] | 6.58 | 11.8 | 6.22 | 71.8 | 14.7 | 12.3 |
| UUUCACCUAGGUCACCGGGUG [Fam2.2 aminoacylation ribozyme variant] | 3.87 | 3.77 | 3.8 | 26.7 | 5.47 | 5.2 |
| CCACACUUCAUCCAAUCGGUC [Fam1B.1 aminoacylation ribozyme variant] | 0.912 | 0.811 | 0.883 | 0.689 | 0.581 | 0.854 |
| AUUACCCUCGUCCUCGAGUGA [Fam2.1 aminoacylation ribozyme variant] | 2.4 | 4.67 | 2.48 | 34.7 | 6.18 | 5.49 |
| CCACACAUCAAGCAAGCGGUC [Fam1B.1 aminoacylation ribozyme variant] | 1.03 | 0.779 | 0.968 | 0.546 | 0.988 | 0.901 |
| AUUACCGUGGUUAUCGAGUGA [Fam2.1 aminoacylation ribozyme variant] | 5.1 | 10.7 | 4.22 | 59.4 | 11.4 | 10.4 |
| GUACACCUAGGUCAUCGGGUG [Fam2.2 aminoacylation ribozyme variant] | 2.53 | 2.32 | 2.54 | 18.5 | 4.08 | 2.69 |
| AUUCACAUAGGUCAGCGGGUG [Fam2.2 aminoacylation ribozyme variant] | 2.91 | 3.83 | 3.26 | 22.6 | 5.03 | 4.15 |
| AUGCACCUAGGUCAUCGAGUG [Fam2.2 aminoacylation ribozyme variant] | 2.56 | 3.33 | 2.61 | 4.83 | 3.75 | 3.96 |
| AUUACCCUGGUCUUCGAGUCA [Fam2.1 aminoacylation ribozyme variant] | 0.873 | 0.844 | 0.953 | 0.638 | 0.688 | 0.903 |
| AUUCAUCUAGGUCAUCUGGUG [Fam2.2 aminoacylation ribozyme variant] | 2.16 | 3.4 | 2.1 | 18.8 | 2.86 | 4.25 |
| AUUAACCGGGUCAUCGAGUGA [Fam2.1 aminoacylation ribozyme variant] | 3.29 | 6.03 | 3.38 | 36 | 7.04 | 7.07 |
| AAGGUUGCUAAUAGGCGCAAG [Fam3.1 aminoacylation ribozyme variant] | 0.796 | 0.729 | 1.19 | 1.11 | 1.17 | 1.17 |
| CUACUUCCAACAUUCGGUCUG [Fam1A.1 aminoacylation ribozyme variant] | 1.39 | 1.07 | 1.17 | 1.68 | 1.16 | 1.54 |
| AUUCACCUCGGUCAUCGGGGG [Fam2.2 aminoacylation ribozyme variant] | 2.67 | 3.13 | 2.66 | 12.8 | 2.72 | 2.98 |
| AUUCCCCUAGGUCAACGGGUG [Fam2.2 aminoacylation ribozyme variant] | 6.99 | 11.5 | 6.94 | 84.2 | 11.5 | 15.4 |
| CUACACUUCAAGCAAUGGGUC [Fam1B.1 aminoacylation ribozyme variant] | 0.536 | 0.494 | 0.65 | 0.544 | 0.47 | 0.542 |
| AGUACCCUGGUCAUUGAGUGA [Fam2.1 aminoacylation ribozyme variant] | 3.39 | 6.37 | 3.86 | 37.2 | 9.07 | 7.4 |
| AUUCAUCUAGGUCAUCGCGUG [Fam2.2 aminoacylation ribozyme variant] | 7.87 | 14.2 | 7.55 | 128 | 11.3 | 18.5 |
| CCACACUUCAAGUAAUCGGUA [Fam1B.1 aminoacylation ribozyme variant] | 0.929 | 1.09 | 1.01 | 0.884 | 0.708 | 1.17 |
